Test results taken from US20040121957A1.

Biological target: ΔNEG2-CFTR (CFTR with amino acids 817-838 deleted) (human), P13569
Assay: cell-based or functional assay

Chain of ΔNEG2-CFTR (CFTR with amino acids 817-838 deleted) (human), P13569 (P13569 other isoform, or with tags, fused parts or gaps mutant): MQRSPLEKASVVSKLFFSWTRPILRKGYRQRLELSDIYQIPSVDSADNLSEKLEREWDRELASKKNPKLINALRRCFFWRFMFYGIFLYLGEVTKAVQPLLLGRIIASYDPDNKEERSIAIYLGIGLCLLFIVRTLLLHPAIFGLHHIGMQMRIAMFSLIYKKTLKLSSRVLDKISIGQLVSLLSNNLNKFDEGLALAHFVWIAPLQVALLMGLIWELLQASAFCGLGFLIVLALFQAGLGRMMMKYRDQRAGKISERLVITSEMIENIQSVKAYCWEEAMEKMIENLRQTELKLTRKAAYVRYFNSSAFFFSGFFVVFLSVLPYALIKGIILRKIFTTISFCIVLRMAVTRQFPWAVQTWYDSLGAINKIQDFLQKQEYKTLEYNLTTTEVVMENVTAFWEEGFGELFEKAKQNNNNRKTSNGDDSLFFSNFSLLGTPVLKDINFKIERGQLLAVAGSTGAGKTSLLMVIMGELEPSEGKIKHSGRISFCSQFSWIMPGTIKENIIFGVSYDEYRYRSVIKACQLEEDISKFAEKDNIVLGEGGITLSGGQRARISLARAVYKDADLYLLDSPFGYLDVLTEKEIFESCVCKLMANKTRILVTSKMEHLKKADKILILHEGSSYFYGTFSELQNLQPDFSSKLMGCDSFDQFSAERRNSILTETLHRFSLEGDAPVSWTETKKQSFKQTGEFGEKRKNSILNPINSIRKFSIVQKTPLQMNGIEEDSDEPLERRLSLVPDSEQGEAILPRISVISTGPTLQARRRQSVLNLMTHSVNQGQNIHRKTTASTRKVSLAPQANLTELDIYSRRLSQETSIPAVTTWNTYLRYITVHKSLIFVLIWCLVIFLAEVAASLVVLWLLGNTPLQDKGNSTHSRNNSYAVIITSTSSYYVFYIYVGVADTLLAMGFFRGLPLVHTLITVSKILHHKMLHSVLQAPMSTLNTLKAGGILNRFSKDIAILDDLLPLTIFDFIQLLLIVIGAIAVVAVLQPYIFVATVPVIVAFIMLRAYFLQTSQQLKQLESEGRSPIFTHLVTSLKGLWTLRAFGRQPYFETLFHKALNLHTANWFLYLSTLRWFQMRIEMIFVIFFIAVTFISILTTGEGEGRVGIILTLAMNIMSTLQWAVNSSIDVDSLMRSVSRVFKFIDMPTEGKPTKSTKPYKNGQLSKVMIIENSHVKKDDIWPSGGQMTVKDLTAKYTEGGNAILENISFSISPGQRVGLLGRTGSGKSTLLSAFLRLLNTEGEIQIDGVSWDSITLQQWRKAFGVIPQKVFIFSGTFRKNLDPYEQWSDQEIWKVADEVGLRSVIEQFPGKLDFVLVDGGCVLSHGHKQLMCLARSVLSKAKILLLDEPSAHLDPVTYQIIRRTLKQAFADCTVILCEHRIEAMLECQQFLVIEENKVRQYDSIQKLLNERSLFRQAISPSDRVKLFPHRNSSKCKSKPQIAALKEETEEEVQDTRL

GLEISEEINEEDLKECFFDDME [synthetic NEG2 peptide (22 amino acid peptide corresponding to CFTR amino acids 817-838)]
stimulation of single channel (peptide concentration): 0.44 µM
